This assay has as its target CTD-HAP40 complex bearing a C-terminal biotin tag (UniProt P23610). In words: BLI.
Sequence of UniProt P23610 (P23610 whole entry, looked up, one chain of several): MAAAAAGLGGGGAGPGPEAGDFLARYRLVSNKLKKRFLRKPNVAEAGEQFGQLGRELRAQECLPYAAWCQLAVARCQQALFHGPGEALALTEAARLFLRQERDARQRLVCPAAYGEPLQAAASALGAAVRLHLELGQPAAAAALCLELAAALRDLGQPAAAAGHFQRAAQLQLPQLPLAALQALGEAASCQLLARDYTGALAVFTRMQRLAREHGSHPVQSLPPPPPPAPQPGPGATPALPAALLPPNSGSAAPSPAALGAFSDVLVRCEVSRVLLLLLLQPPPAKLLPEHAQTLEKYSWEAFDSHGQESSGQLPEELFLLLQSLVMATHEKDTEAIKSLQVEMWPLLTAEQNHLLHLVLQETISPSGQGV

In general, Kd refers to the constant that tells how readily two partners part at equilibrium. High values mean weaker binding, low ones tighter binding. With “HTT N-terminal HEAT and bridge domain construct (NTD, aa. 97-2069) (domain or fragment)”, the Kd came out at 10 nM.
